Publication PMC3188589, “Structural and Biochemical Studies of Human 4-hydroxy-2-oxoglutarate Aldolase: Implications for Hydroxyproline Metabolism in Primary Hyperoxaluria” (PLoS ONE, 2011)
Positions count from the first letter of the chain named. Names may count otherwise. “And” between values parts separate entries of the source, which are not always exact repeats. Equal values may be shown once.

T1: bovine HOGA (bHOGA) (Bos taurus, UniProt Q0P5I5)
T1 construct: gene HOGA1; native mature enzyme purified from kidney cortex mitochondria, begins at residue 26, 35,217 Da printed, no tag
T1 sequence (Q0P5I5 26-327): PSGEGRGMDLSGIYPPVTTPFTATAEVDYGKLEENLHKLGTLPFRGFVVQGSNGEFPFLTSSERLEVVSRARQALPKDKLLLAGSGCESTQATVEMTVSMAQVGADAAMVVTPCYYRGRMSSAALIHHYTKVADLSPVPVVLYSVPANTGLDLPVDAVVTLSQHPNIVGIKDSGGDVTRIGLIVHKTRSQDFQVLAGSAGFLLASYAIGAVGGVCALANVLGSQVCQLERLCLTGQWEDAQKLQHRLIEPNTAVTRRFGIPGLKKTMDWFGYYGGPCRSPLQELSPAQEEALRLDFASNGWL

T2: human HOGA (hHOGA) (Homo sapiens, UniProt Q86XE5)
T2 construct: gene HOGA1; His-tag (WT, Y140F) cleavable by PreScission leaving GPH, 33,097 Da tag-free; S77, N78 and S198 mutants as MBP fusion, MBP cleaved; tetramer
T2 sequence (Q86XE5 26-327): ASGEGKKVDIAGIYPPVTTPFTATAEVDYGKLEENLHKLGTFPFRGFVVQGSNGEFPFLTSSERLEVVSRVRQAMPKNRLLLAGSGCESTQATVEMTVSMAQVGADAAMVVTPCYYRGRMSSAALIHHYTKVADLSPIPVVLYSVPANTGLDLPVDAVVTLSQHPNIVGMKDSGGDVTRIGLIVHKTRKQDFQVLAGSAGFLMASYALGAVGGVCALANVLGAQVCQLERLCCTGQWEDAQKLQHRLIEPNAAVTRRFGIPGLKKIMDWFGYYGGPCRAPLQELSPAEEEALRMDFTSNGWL

B1: human HOGA (hHOGA) (Homo sapiens; Y140F) (protein)
chain: T2 sequence (Q86XE5 26-327) with Y115F
notes: His-tag (WT, Y140F) cleavable by PreScission leaving GPH, 33,097 Da tag-free; S77, N78 and S198 mutants as MBP fusion, MBP cleaved; tetramer
B2: human HOGA (hHOGA) (Homo sapiens; S77A) (protein)
chain: T2 sequence (Q86XE5 26-327) with S52A
notes: as for B1
B3: human HOGA (hHOGA) (Homo sapiens) (protein)
chain: T2 sequence (Q86XE5 26-327)
notes: as for B1
B4: human HOGA (hHOGA) (Homo sapiens; S77T) (protein)
chain: T2 sequence (Q86XE5 26-327) with S52T
notes: as for B1
B5: human HOGA (hHOGA) (Homo sapiens; N78A) (protein)
chain: T2 sequence (Q86XE5 26-327) with N53A
notes: as for B1
B6: human HOGA (hHOGA) (Homo sapiens; S198A) (protein)
chain: T2 sequence (Q86XE5 26-327) with S173A
notes: as for B1
B7: human HOGA (hHOGA) (Homo sapiens; S198T) (protein)
chain: T2 sequence (Q86XE5 26-327) with S173T
notes: as for B1
B8: human HOGA (hHOGA) (Homo sapiens; S77V) (protein)
chain: T2 sequence (Q86XE5 26-327) with S52V
notes: as for B1
B9: human HOGA (hHOGA) (Homo sapiens; N78Q) (protein)
chain: T2 sequence (Q86XE5 26-327) with N53Q
notes: as for B1
B10: human HOGA (hHOGA) (Homo sapiens; N78T) (protein)
chain: T2 sequence (Q86XE5 26-327) with N53T
notes: as for B1
B11: human 4-hydroxy-2-oxoglutarate aldolase (hHOGA), His-tag free (enzyme)
chain: GPHASGEGKKVDIAGIYPPVTTPFTATAEVDYGKLEENLHKLGTFPFRGFVVQGSNGEFPFLTSSERLEVVSRVRQAMPKNRLLLAGSGCESTQATVEMTVSMAQVGADAAMVVTPCYYRGRMSSAALIHHYTKVADLSPIPVVLYSVPANTGLDLPVDAVVTLSQHPNIVGMKDSGGDVTRIGLIVHKTRKQDFQVLAGSAGFLMASYALGAVGGVCALANVLGAQVCQLERLCCTGQWEDAQKLQHRLIEPNAAVTRRFGIPGLKKIMDWFGYYGGPCRAPLQELSPAEEEALRMDFTSNGWL
notes: three additional N-terminal residues left from the PreScission Protease recognition site after removal of the His-tag; the protein starts at residue 26; 302 residues in the mature form; Tetramer (dimer of dimers) in the crystal; dimer-tetramer equilibrium in solution; also called human HOGA; HOGA1; source: E. coli BL21*(DE3), purified (Ni-NTA, Q-Sepharose HP, Superdex 200); His-tag removed with …

The molecules below were run against T1, bovine HOGA (bHOGA) (assay: phenylhydrazine assay of glyoxylate formation). Details: racemic HOG; native enzyme from kidney mitochondria.
Format: biochemical

| Molecule | phenylhydrazine assay of glyoxylate formation |
| --- | --- |
| O=C(O)C(=O)CC(O)C(=O)O (racemic) [HOG] | production of glyoxylate from HOG synthesized in-house |

What follows are molecules tested against T2, human HOGA (hHOGA) (assay: X-ray crystal structure, […] Å). Details: covalent Schiff base with Lys196; 10 mM sodium pyruvate in crystallization, pH 7.5, 20°C.
Format: binding

| Molecule | X-ray crystal structure, 1.97 Å |
| --- | --- |
| CC(=O)C(=O)O [pyruvate] | clear continuous electron density for the imine Schiff base adduct between the ε-amino group of |

These molecules were tested on O=C(O)C(=O)CC(O)C(=O)O (assay: purified protein). Details: racemic HOG, 100 mM TRIS pH 8.5, 37°C, aldol cleavage.
Format: biochemical, Homo sapiens

| Molecule | Km | kcat | kcat/Km |
| --- | --- | --- | --- |
| B1 | 8 ± 1 µM | 5.2 ± 0.1 s⁻¹ | 650000 ± 81000 M⁻¹ s⁻¹ |
| B2 | 84 ± 5 µM | 2.5 ± 0.1 s⁻¹ | 30000 ± 2000 M⁻¹ s⁻¹ |
| B3 | 11 ± 1 µM | 6.1 ± 0.1 s⁻¹ | 555000 ± 50000 M⁻¹ s⁻¹ |
| B4 | 58 ± 8 µM | 0.8 ± 0.1 s⁻¹ | 14000 ± 2000 M⁻¹ s⁻¹ |
| B5 | 66 ± 4 µM | 7.6 ± 0.1 s⁻¹ | 115000 ± 7000 M⁻¹ s⁻¹ |
| B6 | 44 ± 2 µM | 2.4 ± 0.1 s⁻¹ | 55000 ± 3000 M⁻¹ s⁻¹ |
| B7 | 77 ± 5 µM | 7.8 ± 0.1 s⁻¹ | 101000 ± 7000 M⁻¹ s⁻¹ |
| B8 | 82 ± 7 µM | 1.2 ± 0.1 s⁻¹ | 15000 ± 1000 M⁻¹ s⁻¹ |
| B9 | 281 ± 14 µM | 6.2 ± 0.1 s⁻¹ | 22000 ± 1000 M⁻¹ s⁻¹ |
| B10 | 16 ± 1 µM | 4 ± 0.1 s⁻¹ | 250000 ± 16000 M⁻¹ s⁻¹ |

Target: the molecule itself
Test: crystal structure; apoenzyme (2.5 A) and pyruvate-Schiff base complex (1.97 A), space group P6(4)22, one molecule in the asymmetric unit; the tetramer is generated by crystallographic symmetry
Details: not given

| Molecule | stoichiometry N |
| --- | --- |
| B11 | 4 |

Target: the molecule itself
Test: AUC; sedimentation equilibrium; His-tag free hHOGA at 0.43, 0.82, 1.25 mg/ml and a replicate at 0.45, 0.78, 1.14 mg/ml, two rotor speeds; 20 mM HEPES pH 7.5, 100 mM NaCl; fit to a dimer-tetramer model (HETEROANALYSIS, SEDPHAT); tetramer to dimers
Details: not given

| Molecule | Kd |
| --- | --- |
| B11 | ~60 µM and 58 to 63 µM |
